# ± gives the uncertainty stated by the source.
# Assay: protein stability index of a GFP-peptide fusion (yeast GPS) (PSI 1-4); higher = more stable; sorted into four equal gates, so the index is relative within each strain
# Details: doa10∆
# Procedure, shortened: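 Tiled yeast protein peptides of 17 residues were each joined downstream of GFP, on plasmids that also express Cherry. The pooled library was maintained in yeast, and mid-log cultures in leucine-free medium were sorted into four equal gates on the GFP/Cherry ratio. Plasmids from every gate were amplified by PCR and sequenced on Illumina, with barcodes linking reads to strains. The protein stability index of a peptide is its gate-number-weighted read frequency summed over the gates.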
row,Sequence,protein stability index
1,KITDKEDLLHYIEEKHP [POP4],3.48 ± 0.1
2,KKAAEEAGVTDVKVSIS [FAS2],1.44 ± 0.09
3,KKCPFTGLVSIRGKILT [RPS11A],1.7 ± 0.058
4,KKECALLISYGVSIENE [SRB4],1.75 ± 0.085
5,KKEYIELDILNKGWKLQ [SRB4],2.29 ± 0.13
6,KKGVRVTLDITTLTIMR [RPT4],2.48 ± 0.093
7,KKINRRNETSVDEEDEN [YCG1],3.41 ± 0.1
8,KKKGLDENTSGKISKPR [PRP28],3.5 ± 0.091
9,KKLDYVLALKVEDFLER [RPS9A],1.76 ± 0.092
10,KKLNKNKKLIKKLSKKY [RPL1A],3.78 ± 0.21
11,KKNIQKAKSNQTQREKA [IRR1],2.59 ± 0.099
12,KKPSPQTIPIQIYGFEG [YGR119C/NUP57],2.61 ± 0.26
13,KKRSHHGKASRQQYYSG [SNF6],3.05 ± 0.088
14,KKSKIQLLDIAEFKKEN [LIN1],1.42 ± 0.1
15,KKSKLISLYLLNLLSQN [RPN12],1.31 ± 0.057
16,KKSRSNLSQENDNEGKH [YAR002W/NUP60],2.77 ± 0.058
17,KKVSRRNARATRAAKIA [RPL13A],2.25 ± 0.085
18,KKYLKKNQLRDWIRFVS [RPL22A],1.8 ± 0.06
19,KLHFKDTKPFLNKDSTN [NUT1],2.51 ± 0.098
20,KLIKFETRNEDDVVVLT [FAS1],3.32 ± 0.17
21,KLITTYISLLKLQGLYE [YDL116W/NUP84],2.23 ± 0.059
22,KLKYHDFLRKATAFNKT [RPL16A],1.16 ± 0.13
23,KLLATSTKIIMLLLNDS [SRB8],1.57 ± 0.065
24,KLLGVDMQSSVDTGLQP [YLR018C/POM34],3.17 ± 0.077
25,KLPLLNESLIPLINLAL [YML103C/NUP188],1.69 ± 0.061

row,Sequence,protein stability index
1,KLQLGQLYESGNPVNDA [COR1],3.03 ± 0.076
2,KLRAARAKAMKFADGFL [RPS3],3.3 ± 0.17
3,KLSQMILDKIFYGVLDQ [RPN6],2.83 ± 0.13
4,KLSQYVQEMALGGPITK [FAS2],2.6 ± 0.083
5,KLTAERANLRKYREGQV [POP1],2.91 ± 0.058
6,KLTILQEGIEAIATTVI [RET1],2.79 ± 0.069
7,KLVRDSFTSATERHIQV [PRE7],2.78 ± 0.075
8,KLYTKELSVTGSAINHH [YMR129W/POM152],1.22 ± 0.12
9,KMFQDIRLSKILEDDFA [CDC53],2.94 ± 0.062
10,KMWFDVQLRYGDYDSHD [PRP8],1.78 ± 0.12
11,KNAAESSYMGKHWTEKS [PRP28],3.17 ± 0.12
12,KNAGLGFKTPKTAIEGS [RPS11A],3.01 ± 0.047
13,KNDDNSCRNPEHTDVID [YIL149C/MLP2],3.03 ± 0.15
14,KNDNGGKMNNEVSTSTS [SWI3],3.29 ± 0.08
15,KNFSPTKRVEKPQLKFK [RRP6],2.33 ± 0.093
16,KNGKIYLKHNSIAEEIP [RET1],2.97 ± 0.059
17,KNIHISKRSKIDIINKL [YML103C/NUP188],1.34 ± 0.17
18,KNIQSKDSYINANTIET [FAS2],2.9 ± 0.05
19,KNKKIEVYTKTIEVLDE [POP7],2.12 ± 0.11
20,KNKYLKDVLAQTSVTTN [SWP82],2.5 ± 0.065
21,KNLSLLAEEVVDNIVNK [SRP68],3.15 ± 0.092
22,KNQHRAASWYGSFNEMK [RMP1],2.89 ± 0.048
23,KNRSTIFWGIRLAKSTE [BRR2],3.04 ± 0.29
24,KNTLLERLKQLTPNEIK [SWP82],2.8 ± 0.063
25,KNYTTETDNEMNGNGKP [SIR3],3.24 ± 0.078

row,Sequence,protein stability index
1,KPANASHAIRLGNGVAC [RGR1],2.71 ± 0.06
2,KPDSDIVALSSEEINQY [PRE6],3.12 ± 0.05
3,KPEIDENGTLLVPPPRT [RPR2],3.02 ± 0.048
4,KPELRKKVMPAIVVRQA [RPL23A],2.83 ± 0.14
5,KPGIPRGNTKIHSMNEN [SIR3],3.23 ± 0.2
6,KPIYKDTRFGGRMDMTR [SSN2],3.1 ± 0.17
7,KPKKPKGRAYKRLLYTR [RPS30A],3.13 ± 0.098
8,KPSPIDSGIGSNGSGIV [CSL4],3.17 ± 0.06
9,KPSRTSRQVQKRPRSRT [RPS7A],3.08 ± 0.092
10,KPTVILKLLKENIIQME [FAS1],1.38 ± 0.087
11,KQENSTLLKKANRDDVK [RPC82],2.72 ± 0.085
12,KQINEARDEILPLRLQF [PGD1],2.13 ± 0.065
13,KQLEKRDYQRINKNSKI [POP4],2.06 ± 0.067
14,KRAFENFKKFNERRKDL [SMC3],3.45 ± 0.078
15,KRAKEFITTLLKSLYSF [SIN4],2.19 ± 0.039
16,KREIQEALSEKPTREPT [RPC53],2.96 ± 0.11
17,KRELLKRYRLKESQLPR [RPB5],3.19 ± 0.2
18,KRFKRKDNAKISNNLAL [SRP68],2.31 ± 0.054
19,KRFQVLYPCYFDINRSH [SEC65],2.11 ± 0.062
20,KRKEELVSTLTTGISST [SMC2],2.3 ± 0.061
21,KRKPAKSSSNRSCVSNS [RPN4],2.89 ± 0.059
22,KRPRSRTLTAVHDKILE [RPS7A],2.06 ± 0.054
23,KRQLIKERNQKFQLQNQ [YIL149C/MLP2],2.75 ± 0.096
24,KRSFSSTLKSFFTNPNK [YOR098C/NUP1],2.39 ± 0.039

# Same assay, conditions: pdr5∆
row,Sequence,protein stability index
1,KITDKEDLLHYIEEKHP [POP4],3.3 ± 0.064
2,KKAAEEAGVTDVKVSIS [FAS2],1.66 ± 0.08
3,KKCPFTGLVSIRGKILT [RPS11A],1.53 ± 0.06
4,KKECALLISYGVSIENE [SRB4],1.9 ± 0.16
5,KKEYIELDILNKGWKLQ [SRB4],3.38 ± 0.17
6,KKGVRVTLDITTLTIMR [RPT4],2.08 ± 0.11
7,KKINRRNETSVDEEDEN [YCG1],3.38 ± 0.098
8,KKKGLDENTSGKISKPR [PRP28],3.23 ± 0.14
9,KKLDYVLALKVEDFLER [RPS9A],2.73 ± 0.079
10,KKLNKNKKLIKKLSKKY [RPL1A],3.43 ± 0.11
11,KKNIQKAKSNQTQREKA [IRR1],2.65 ± 0.11
12,KKPSPQTIPIQIYGFEG [YGR119C/NUP57],3.06 ± 0.22
13,KKRSHHGKASRQQYYSG [SNF6],3.11 ± 0.062
14,KKSKIQLLDIAEFKKEN [LIN1],2.29 ± 0.13
15,KKSKLISLYLLNLLSQN [RPN12],1.97 ± 0.062
16,KKSRSNLSQENDNEGKH [YAR002W/NUP60],3.12 ± 0.052
17,KKVSRRNARATRAAKIA [RPL13A],2.9 ± 0.1
18,KKYLKKNQLRDWIRFVS [RPL22A],1.68 ± 0.062
19,KLFVSKEHAPYTDELEE [FAS2],1.61 ± 0.12
20,KLHFKDTKPFLNKDSTN [NUT1],2.23 ± 0.073
21,KLIIHRKNDNANDHDES [SMC3],1.73 ± 0.21
22,KLIKFETRNEDDVVVLT [FAS1],2.93 ± 0.13
23,KLITTYISLLKLQGLYE [YDL116W/NUP84],1.82 ± 0.061
24,KLKYHDFLRKATAFNKT [RPL16A],1.24 ± 0.14
25,KLLATSTKIIMLLLNDS [SRB8],1.46 ± 0.059

row,Sequence,protein stability index
1,KLLGVDMQSSVDTGLQP [YLR018C/POM34],3.12 ± 0.067
2,KLPLLNESLIPLINLAL [YML103C/NUP188],2.16 ± 0.068
3,KLQLGQLYESGNPVNDA [COR1],2.98 ± 0.091
4,KLRAARAKAMKFADGFL [RPS3],3.03 ± 0.14
5,KLSQMILDKIFYGVLDQ [RPN6],2.99 ± 0.12
6,KLSQYVQEMALGGPITK [FAS2],2.74 ± 0.055
7,KLTAERANLRKYREGQV [POP1],3.02 ± 0.07
8,KLTILQEGIEAIATTVI [RET1],2.32 ± 0.06
9,KLVRDSFTSATERHIQV [PRE7],2.9 ± 0.055
10,KLYTKELSVTGSAINHH [YMR129W/POM152],1.35 ± 0.077
11,KMFQDIRLSKILEDDFA [CDC53],3.04 ± 0.088
12,KMWFDVQLRYGDYDSHD [PRP8],2.06 ± 0.15
13,KNAAESSYMGKHWTEKS [PRP28],3.24 ± 0.17
14,KNAGLGFKTPKTAIEGS [RPS11A],3.12 ± 0.055
15,KNDDNSCRNPEHTDVID [YIL149C/MLP2],2.75 ± 0.099
16,KNDNGGKMNNEVSTSTS [SWI3],3.14 ± 0.1
17,KNFSPTKRVEKPQLKFK [RRP6],2.17 ± 0.1
18,KNGKIYLKHNSIAEEIP [RET1],2.81 ± 0.05
19,KNIQSKDSYINANTIET [FAS2],2.88 ± 0.043
20,KNKKIEVYTKTIEVLDE [POP7],2.78 ± 0.11
21,KNKYLKDVLAQTSVTTN [SWP82],2.5 ± 0.06
22,KNLSLLAEEVVDNIVNK [SRP68],2.9 ± 0.13
23,KNQHRAASWYGSFNEMK [RMP1],3.21 ± 0.055
24,KNRSTIFWGIRLAKSTE [BRR2],2.97 ± 0.16
25,KNTLLERLKQLTPNEIK [SWP82],2.81 ± 0.065

row,Sequence,protein stability index
1,KNYTTETDNEMNGNGKP [SIR3],3.37 ± 0.054
2,KPANASHAIRLGNGVAC [RGR1],3.06 ± 0.052
3,KPDSDIVALSSEEINQY [PRE6],3.03 ± 0.047
4,KPEIDENGTLLVPPPRT [RPR2],3.15 ± 0.051
5,KPELRKKVMPAIVVRQA [RPL23A],2.87 ± 0.086
6,KPGIPRGNTKIHSMNEN [SIR3],2.9 ± 0.22
7,KPIYKDTRFGGRMDMTR [SSN2],3.36 ± 0.14
8,KPKKPKGRAYKRLLYTR [RPS30A],2.79 ± 0.11
9,KPSPIDSGIGSNGSGIV [CSL4],2.89 ± 0.042
10,KPSRTSRQVQKRPRSRT [RPS7A],2.44 ± 0.085
11,KPTVILKLLKENIIQME [FAS1],1.36 ± 0.12
12,KQENSTLLKKANRDDVK [RPC82],2.51 ± 0.13
13,KQINEARDEILPLRLQF [PGD1],2.63 ± 0.077
14,KQLEKRDYQRINKNSKI [POP4],2.4 ± 0.068
15,KRAFENFKKFNERRKDL [SMC3],3.26 ± 0.068
16,KRAKEFITTLLKSLYSF [SIN4],1.94 ± 0.05
17,KREGRNELQEERLKVPI [POP6],3.37 ± 0.2
18,KREIQEALSEKPTREPT [RPC53],2.86 ± 0.098
19,KRELLKRYRLKESQLPR [RPB5],3.29 ± 0.14
20,KRFKRKDNAKISNNLAL [SRP68],2.59 ± 0.067
21,KRFQVLYPCYFDINRSH [SEC65],2.11 ± 0.055
22,KRKEELVSTLTTGISST [SMC2],2.07 ± 0.052
23,KRKPAKSSSNRSCVSNS [RPN4],3.01 ± 0.077
24,KRPRSRTLTAVHDKILE [RPS7A],2.13 ± 0.052
